Results taken from patent US20230391882A1 (NUMAB THERAPEUTICS, published 2023).

B1: PRO2562 (MATCH4) (other)
chain 1: ALQMTQSPSSLSARVGDRVTIKCQASQSISNYLAWYQQKPGKPPKFLIYDASDLASGVPSRFSGSGSGRDFTLTISSLQPEDFATYYCQQVYDSNNVENVFGCGTKVTVLGGGGGSGGGGSGGGGSGGGGSQSQLVESGGGLVQPGGSLRLSCAVSGFSLSSYAMGWVRQAPGKCLEYIGYISKIGTTYYASWAKGRFTISKDNSKNTVYLQMNSLRAEDTAVYFCARGSSSGGYLDDGFDPWGQGTLVTVSSGGGGSGGGGSEVQLVESGGGLVQPGGSLRLSCAASGFSLSSYDMSWVRQAPGKGLAWIGASYASGPTYYASWAKGRFTISRDNSKNTVYLQMCSLRAEDTATYFCARGGWTGTSHSNIWGQGTLVTVSSGGGSGGGSGGGSGEVQLVESGGGLVQPGGSLRLSCAASGFSLSSYAMNWVRQAPGKCLEWIGHINAGDIAYYATWAKGRFTISRDNSKNTVYLQMNSLRAEDTAVYFCARGAGGFSTGPFKLWGQGTLVTVSS
chain 2: ALQMTQSPSSLSARVGDRVTIKCQASQSISNYLAWYQQKPGKPPKFLIYDASDLASGVPSRFSGSGSGRDFTLTISSLQPEDFATYYCQQVYDSNNVENVFGCGTKVTVLGGGGGSGGGGSGGGGSGGGGSQSQLVESGGGLVQPGGSLRLSCAVSGFSLSSYAMGWVRQAPGKCLEYIGYISKIGTTYYASWAKGRFTISKDNSKNTVYLQMNSLRAEDTAVYFCARGSSSGGYLDDGFDPWGQGTLVTVSSGGGGSGGGGSAFELTQSPSSLSASVGDRVTITCQASESINSRLAWYQQKPGQPPKLLIYDASDLTSGVPSRFSGSGSGTDFTLTISCLQPEDFATYYCQGYGGSSTTTFGCGTKLTVLGGGSGGSGGSGGSGDIQMTQSPSSLSASVGDRVTITCQSSQSVFSNNYLAWFQQKPGQSPKRLIYSASTLASGVPSRFSGSGSGTDFTLTISSLQPEDFATYYCLGSYACSSADCYVFGTGTKVTVLG
B2: PRO2100 (biMSLNlow affinity x CD3 x hSA) (other)
chain 1: DIQMTQSPSSLSASVGDRVTITCQASQNIYSNLAWYQQKPGKAPKLLIYDASDLASGVPSRFSGSGSGTDFTLTISSLQPEDFATYYCQQVRSSSDIDNPFGTGTKVTVLGGGGGSGGGGSGGGGSGGGGSQVQLVESGGGLVQPGGSLRLSCAASGFSLSSYAMGWVRQAPGKGLEWIGYISTIANTYYASWAKGRFTISRDNSKNTVYLQMNSLRAEDTAVYYCAREIRSGWVDYGFSIWGQGTLVTVSSGGGGSGGGGSEVQLVESGGGLVQPGGSLRLSCAASGFSLSSYDMSWVRQAPGKGLAWIGASYASGPTYYASWAKGRFTISRDNSKNTVYLQMNSLRAEDTATYFCARGGWTGTSHSNIWGQGTLVTVSSGGGSGGGSEVQLVESGGGLVQPGGSLRLSCAASGFSFSSSYWICWVRQAPGKCLEWVGCVFTGDGTTYYASWAKGRFTISRDNSKNTVYLQMNSLRAEDTATYFCARPVSVYYYGMDLWGQGTLVTVSS
chain 2: DIQMTQSPSSLSASVGDRVTITCQASQNIYSNLAWYQQKPGKAPKLLIYDASDLASGVPSRFSGSGSGTDFTLTISSLQPEDFATYYCQQVRSSSDIDNPFGTGTKVTVLGGGGGSGGGGSGGGGSGGGGSQVQLVESGGGLVQPGGSLRLSCAASGFSLSSYAMGWVRQAPGKGLEWIGYISTIANTYYASWAKGRFTISRDNSKNTVYLQMNSLRAEDTAVYYCAREIRSGWVDYGFSIWGQGTLVTVSSGGGGSGGGGSDVVMTQSPSSLSASVGDRVTITCQASQIISSRSAWYQQKPGQPPKLLIYQASKLASGVPSRFSGSGSGTDFTLTISSLQPEDFATYYCQCTYIDSNFGAFGCGTKLTVLGGGSGGSDIQMTQSPSSLSASVGDRVTITCQSSQSVFSNNYLAWFQQKPGQSPKRLIYSASTLASGVPSRFSGSGSGTDFTLTISSLQPEDFATYYCLGSYACSSADCYVFGTGTKVTVLG
B3: PRO2566 (MATCH4) (other)
chain 1: AFELTQSPSSLSASVGDRVTITCQASESINSRLAWYQQKPGQPPKLLIYDASDLTSGVPSRFSGSGSGTDFTLTISSLQPEDFATYYCQGYGGSSTTTFGTGTKLTVLGGGGGSGGGGSGGGGSGGGGSEVQLVESGGGLVQPGGSLRLSCAASGFSLSSYAMNWVRQAPGKGLEWIGHINAGDIAYYATWAKGRFTISRDNSKNTVYLQMNSLRAEDTAVYFCARGAGGFSTGPFKLWGQGTLVTVSSGGGGSGGGGSEVQLVESGGGLVQPGGSLRLSCAASGFSLSSYDMSWVRQAPGKGLAWIGASYASGPTYYASWAKGRFTISRDNSKNTVYLQMNSLRAEDTATYFCARGGWTGTSHSNIWGQGTLVTVSSGGGSGGGSGGGSGQSQLVESGGGLVQPGGSLRLSCAVSGFSLSSYAMGWVRQAPGKCLEYIGYISKIGTTYYASWAKGRFTISKDNSKNTVYLQMNSLRAEDTAVYFCARGSSSGGYLDDGFDPWGQGTLVTVSS
chain 2: ALQMTQSPSSLSARVGDRVTIKCQASQSISNYLAWYQQKPGKPPKFLIYDASDLASGVPSRFSGSGSGRDFTLTISSLQPEDFATYYCQQVYDSNNVENVFGCGTKVTVLGGGGGSGGGGSGGGGSGGGGSQSQLVESGGGLVQPGGSLRLSCAVSGFSLSSYAMGWVRQAPGKCLEYIGYISKIGTTYYASWAKGRFTISKDNSKNTVYLQMNSLRAEDTAVYFCARGSSSGGYLDDGFDPWGQGTLVTVSSGGGGSGGGGSALQMTQSPSSLSARVGDRVTIKCQASQSISNYLAWYQQKPGKPPKFLIYDASDLASGVPSRFSGSGSGRDFTLTISSLQPEDFATYYCQQVYDSNNVENVFGCGTKVTVLGGGSGGSGGSGGSGDIQMTQSPSSLSASVGDRVTITCQSSQSVFSNNYLAWFQQKPGQSPKRLIYSASTLASGVPSRFSGSGSGTDFTLTISSLQPEDFATYYCLGSYACSSADCYVFGTGTKVTVLG
B4: PRO2567 (MATCH4) (other)
chain 1: B3 chain 1
chain 2: ALQMTQSPSSLSARVGDRVTIKCQASQSISNYLAWYQQKPGKPPKFLIYDASDLASGVPSRFSGSGSGRDFTLTISSLQPEDFATYYCQQVYDSNNVENVFGCGTKVTVLGGGGGSGGGGSGGGGSGGGGSQSQLVESGGGLVQPGGSLRLSCAVSGFSLSSYAMGWVRQAPGKCLEYIGYISKIGTTYYASWAKGRFTISKDNSKNTVYLQMNSLRAEDTAVYFCARGSSSGGYLDDGFDPWGQGTLVTVSSGGGGSGGGGSALQMTQSPSSLSARVGDRVTIKCQASQSISNYLAWYQQKPGKPPKFLIYDASDLASGVPSRFSGSGSGRDFTLTISSLQPEDFATYYCQQVYDSNNVENVFGCGTKVTVLGGGSGGSDIQMTQSPSSLSASVGDRVTITCQSSQSVFSNNYLAWFQQKPGQSPKRLIYSASTLASGVPSRFSGSGSGTDFTLTISSLQPEDFATYYCLGSYACSSADCYVFGTGTKVTVLG

Experiments:
[1] = biological target: mesothelin (MSLN) on target cells (H226, MeT-5A) (UniProt Q13421 37-598, limits assumed); experiment: cell-based or functional assay
[2] = biological target: soluble mesothelin (sMSLN) (UniProt Q13421 296-580, limits assumed); experiment: cell-based or functional assay

| Binder | T-cell driven cytotoxicity assay: EC50 for killing high MSLN expressing target cells against EC50 for killing MeT-5A cells [1] | increase of EC50 for killing high MSLN expressing target cells in the presence of 50 ng/ml sMSLN [2] | increase of EC50 for killing high MSLN expressing target cells in the presence of 500 ng/ml sMSLN [2] | decrease of potency of T-cell driven target cell killing in the presence of 500 ng/ml soluble MSLN [2] |
| --- | --- | --- | --- | --- |
| B1 | ≥ 25 fold | ≤ 6 fold | ≤ 40 fold |  |
| B2 |  |  |  | 17 fold |
| B3 | ≥ 25 fold | ≤ 6 fold | ≤ 40 fold |  |
| B4 | ≥ 25 fold | ≤ 6 fold | ≤ 40 fold |  |
